This data set deals with MS2 coat protein. The experiment in a line: apparent KD of MS2 coat protein; designed switch direction (-1 OFF switch, 1 ON switch): 1; higher = weaker reporter binding. The method, boiled down: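 An oligonucleotide input, 200 uM small-molecule ligand, or no input was present during titration of SNAP-549-labelled MS2 coat protein, which was doubled from 0.7 or 1.5 nM to 3 µM. Designed RNA switches had been transcribed on Illumina chips by stalled E. coli RNA polymerase. Apparent KD per design is the median over clusters of curves fitted to normalised cluster fluorescence.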

The mark [1] stands for this setting: input ligand: microRNA oligo, concentration not stated.
[2] abbreviates: Eterna round: R95, input ligand: FMN 200 uM.
[3] abbreviates: Eterna round: R95, input ligand: microRNA oligo, concentration not stated.
[4] abbreviates: Eterna round: R95, input ligand: none.

Regarding “AUUAUACAUGAGGAUCACCCAUGUAAUUAAUCUAGUAAGAUCUAGGAUAUCAGCUCGAAUAGAGCUGAGAAGGAGAUCACAUGU [SSNG3/20-D1] (Eterna round: R96, puzzle: Same State NG 3)”, the “apparent KD of MS2 coat protein” value under setting [1] was 45.8 nM.

Regarding “GGUCGGACUCACAUGAGGAUCACCCAUGUUGCGGAAACGCGAUAGGAUAUCUGUCCGAAAAGGUCAGAGAAGGGUCAACCGACC [Fiskers NG3ss - 64] (Eterna round: R96, puzzle: Same State NG 3)”, the “apparent KD of MS2 coat protein” value (input ligand: FMN 200 uM) stood at 447 nM, the “apparent KD of MS2 coat protein” value under setting [1] turned out to be 486 nM and the “apparent KD of MS2 coat protein” value (input ligand: none) stood at 567 nM.

Take “AGUCCAGCCUGAGCUGGACAAAAGCAUGUACAUGAGGAUCACCCAUGUUCAUGUGCAAGCUUUUUGCUCGUCUUAAA [Zipper 52 - 4] (Eterna round: R96, puzzle: Sensor for hsa-mir-208a)”: the “apparent KD of MS2 coat protein” value reads like this: (input ligand: FMN 200 uM) 71.5 nM; under setting [1], 10.7 nM; (input ligand: none) 69.8 nM.

Regarding “AGGGAGGAUGCAGGAUAUACAAGACAUGAGGAUCACCCAUGUACCUUGUGGAGAAGAAAGGAGAGGUAGAAGGGUAGUGAGGAA [Default title] (Eterna round: R96, puzzle: Same State NG 2)”, the “apparent KD of MS2 coat protein” value reads like this: (input ligand: FMN 200 uM) 11.7 nM; under setting [1], 13 nM; (input ligand: none) 16.4 nM.

Turning to “UGCUUCGUGUAAGGAUAUGCAGCCGUUUCGGCUGCAGAAGGUACUAUAAUACAUGAGGAUCACCCAUGUCUCUCGCAUUGCGGG [salish99_SSng1_r04_303] (Eterna round: R96, puzzle: Same State NG 1)”, the “apparent KD of MS2 coat protein” value turned out to be 37.5 nM (input ligand: FMN 200 uM), 40.3 nM under setting [1] and 52.2 nM (input ligand: none).

With “UGUUGUAUUACAGGAUAUCUAUGAUUGUUAUUUAGAGAAGGGUAUUCACAUGAGGAUCACCCAUGUAUAUACGAGGAAGUUGUG [JMF's solution 60] (Eterna round: R96, puzzle: Same State NG 1)”, the “apparent KD of MS2 coat protein” value reads like this: (input ligand: FMN 200 uM) 52.3 nM; under setting [1], 36.7 nM; (input ligand: none) 50.6 nM.

On to “GGUCCAGCCUGAGCUGGACAAAAGCAUGUACAUGAGGAUCACCCAUGUCAUGUACAAGCUUUUUGCUCGUUUUAAAA [JL mod - D87 - 14] (puzzle: Sensor for hsa-mir-208a)”, for which the “apparent KD of MS2 coat protein” value was found to be 527 nM under setting [2], 14.5 nM under setting [3] and 576 nM under setting [4].

For the sequence “GACAAGCAGGCUUUUUUCUCGUAGUGUAAACAUGAGGAUCACCCAUGUGCCCGCCCUGGAUCUUUGGAUCGCAGGAA [Onlari] (puzzle: Sensor for hsa-mir-208a)”, the “apparent KD of MS2 coat protein” value was found to be 36.4 nM under setting [2], 14.5 nM under setting [3] and 35.5 nM under setting [4].

For “UAGGGACAUGAGGAUCACCCAUGUGCCUCAUAUGGAGAAACUCAGGAUAUGCUGAGGAUCACCCGGCAGAAGGGAGAUUUGACC (Eterna round: R96, puzzle: Same State NG 3)”, the “apparent KD of MS2 coat protein” value runs as follows: (input ligand: FMN 200 uM) 24.2 nM; under setting [1], 37.1 nM; (input ligand: none) 53.2 nM.

Turning to “GUUAAACAUGAGGAUCACCCAUGUCAUCUAAGUCGAGGAUAUGGGAAUUAAUUAAUUAAACCAGAAGGCGAAAAUU [Mat - Same State 1 - D95] (puzzle: Same State 1)”, the “apparent KD of MS2 coat protein” value runs as follows: under setting [2], 59.7 nM; under setting [3], 756 nM; under setting [4], 1110 nM.

As to “CGGGUGGUUCUAGGAUAUCUAGGAUAUGGACGAGGAUUACCCGAGCAGCAUUAGCGCACCAGAGGAGAGAAGGAGAGUGAUGCG [pwkr ssNG2 2F5 2FMN.16] (Eterna round: R96, puzzle: Same State NG 2)”, the “apparent KD of MS2 coat protein” value (input ligand: FMN 200 uM) amounted to 251 nM, the “apparent KD of MS2 coat protein” value under setting [1] worked out at 3.25 nM and the “apparent KD of MS2 coat protein” value (input ligand: none) came out at 53.3 nM.

Consider “GGAGCCGGCCUAGGAUAUUUCAUAAAAAGACAUGAGGAUCACCCAUGUAGGCCAGAAGGCCUUGGGAAGAAGGAGGUCGGCUCC [Loop Effect - G29] (Eterna round: R96, puzzle: Same State NG 2)”, for which the “apparent KD of MS2 coat protein” value is, setting by setting: (input ligand: FMN 200 uM) 20.8 nM; under setting [1], 22.7 nM; (input ligand: none) 32.9 nM.

“GGAGCCGGCCUAGGAUAUUUCAUAUUUAAACAUGAGGAUCACCCAUGUAGGCCAGAAGGCCUUGGGAAGAAGGAGGUCGGCUCC [Loop Effect - U25,U26,U27] (Eterna round: R96, puzzle: Same State NG 2)”: the “apparent KD of MS2 coat protein” value under setting [1] was 57.4 nM.

With “GUGGUCAGACAUGAGGAUCACCCAUGUGGAAUAAAUAACGUCAAGGAUAUACAAUAUAGGAUAUAGUAGAAGGUGAGAUUGGUG (Eterna round: R96, puzzle: Same State NG 3)”, the “apparent KD of MS2 coat protein” value under setting [1] is 94.8 nM.

For the sequence “GCAGGGCCGGGCCCUGCAGACAUGAGGAUCACCCAUGUAACACAGGAUAUGACUGGGAUACCUGGUUAGAAGGGUGCGAAAGAA [Ustivetice] (Eterna round: R96, puzzle: Same State NG 3)”, the “apparent KD of MS2 coat protein” value (input ligand: FMN 200 uM) was determined as 299 nM, the “apparent KD of MS2 coat protein” value under setting [1] came out at 645 nM and the “apparent KD of MS2 coat protein” value (input ligand: none) amounted to 57.4 nM.

“GGAUGAUAGACAGGAUAUUGAUUGUAAUUUUGUCAAGAAGGGUCUUUGAUUUAAACGACCAGUUACAUGAGGAUCACCCAUGUU [JR_SSNG1_Sub030] (Eterna round: R96, puzzle: Same State NG 1)”: the “apparent KD of MS2 coat protein” value stood at 20.1 nM (input ligand: FMN 200 uM), 27.6 nM under setting [1] and 30.3 nM (input ligand: none).

For “CUCAAAACAAGCUGCAGUGUUCGUCUUUAACAUGAGGAUCACCCAUGUAGUAGCCCGGUGGAAGCGCUCGGGCCACC [Antetera] (puzzle: Sensor for hsa-mir-208a)”, the “apparent KD of MS2 coat protein” value under setting [2] came out at 44.3 nM, the “apparent KD of MS2 coat protein” value under setting [3] is 27.8 nM and the “apparent KD of MS2 coat protein” value under setting [4] worked out at 43.9 nM.

On to “AAUAUUAAGGCGGACGUUAACCGCAACCGACAUGAGGAUCACCCAUGUGCUUCAAGCUCAGACAUCUCUUAUCGUCA [Arrizareat] (Eterna round: R96, puzzle: Sensor for hsa-mir-208a)”, for which the “apparent KD of MS2 coat protein” value is, setting by setting: (input ligand: FMN 200 uM) 84.3 nM; under setting [1], 59.4 nM; (input ligand: none) 79 nM.

Regarding “UACAAUCUAUCUGAGGAUAUCAUGCAUUACACAUGAGGAUCACCCAUGUGCAGGAAAACUGCAUAUGAGAAGGCAGAUAGAUUGU [salish99_ss2_r3_066] (Eterna round: R96, puzzle: Same State 2)”, the “apparent KD of MS2 coat protein” value (input ligand: FMN 200 uM) was found to be 15.5 nM, the “apparent KD of MS2 coat protein” value under setting [1] was determined as 328 nM and the “apparent KD of MS2 coat protein” value (input ligand: none) is 411 nM.

With “ACGCAGCUGGGUGAGGAUAUUGGUGGUACAACAUGAGGAUCACCCAUGUCCGAAGCUCGGACCUCCGAGAAGGCGCCCGGCUGCG [Soinraesar Omei Mod 4] (puzzle: Same State 2)”, the “apparent KD of MS2 coat protein” value amounted to 39.7 nM under setting [2], 269 nM under setting [3] and 912 nM under setting [4].

In the case of “GAAAUAAUGUAAGGAUAUACAUGAGGAUUUCUCGUAGAAGGUACAAGACAUGAGGAUCACCCAUGUGUCGCUCCGUAGAGCGUA [Mat - Same State NG 1 - JL mod - D14] (Eterna round: R96, puzzle: Same State NG 1)”, the “apparent KD of MS2 coat protein” value under setting [1] amounted to 125 nM.
